In patent US20260275319A1 (MAX PLANCK GESELLSCHAFT ZUR F RDERUNG DER WISSENSCHAFTEN E V, published 2026):
Each block holds one binder with its values, some of them ahead of it.

Tests used:
[1] = biological target: T1, MtrE of M. mazei (subunit of the MtrA-MtrH complex), from whole cell extract (Methanosarcina mazei); experiment: pulldown from M. mazei whole cell extract with Myc-tagged Adriase, LC-MS/MS (Experiment 2.2)
T1 sequence (P80651 whole entry, looked up): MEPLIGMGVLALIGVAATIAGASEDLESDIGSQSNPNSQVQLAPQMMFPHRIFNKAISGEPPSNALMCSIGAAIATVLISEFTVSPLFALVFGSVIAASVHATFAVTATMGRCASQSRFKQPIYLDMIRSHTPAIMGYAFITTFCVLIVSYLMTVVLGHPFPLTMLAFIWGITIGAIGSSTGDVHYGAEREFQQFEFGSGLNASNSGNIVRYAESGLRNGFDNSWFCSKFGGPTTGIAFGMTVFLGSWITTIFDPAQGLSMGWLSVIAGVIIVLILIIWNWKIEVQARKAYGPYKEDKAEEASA

[2] = biological target: T2, MtrB of M. mazei (subunit of the MtrA-MtrH complex), from whole cell extract (Methanosarcina mazei); experiment: as above
T2 sequence (P80655 whole entry, looked up): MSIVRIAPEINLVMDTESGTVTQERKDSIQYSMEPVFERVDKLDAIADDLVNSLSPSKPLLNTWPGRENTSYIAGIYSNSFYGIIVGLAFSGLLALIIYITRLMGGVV

[3] = biological target: T3, MtrH of M. mazei (subunit of the MtrA-MtrH complex), from whole cell extract (Methanosarcina mazei); experiment: as above
T3 sequence (P80650 1-316, looked up): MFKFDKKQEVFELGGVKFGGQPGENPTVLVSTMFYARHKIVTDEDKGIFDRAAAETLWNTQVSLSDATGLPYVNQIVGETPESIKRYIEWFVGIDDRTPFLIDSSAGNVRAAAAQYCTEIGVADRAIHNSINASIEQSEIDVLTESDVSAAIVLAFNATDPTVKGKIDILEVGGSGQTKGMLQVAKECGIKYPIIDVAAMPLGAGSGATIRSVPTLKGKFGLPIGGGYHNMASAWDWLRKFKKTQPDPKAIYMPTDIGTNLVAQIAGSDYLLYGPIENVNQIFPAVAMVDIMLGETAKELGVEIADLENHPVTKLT

[4] = biological target: T4, MtrG of M. mazei (subunit of the MtrA-MtrH complex), from whole cell extract (Methanosarcina mazei); experiment: as above
T4 sequence (P80656 whole entry, looked up): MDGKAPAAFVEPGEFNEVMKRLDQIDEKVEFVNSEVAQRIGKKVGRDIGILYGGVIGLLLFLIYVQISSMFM

[5] = biological target: T1, MtrE of M. mazei (subunit of the …); experiment: pulldown from M. mazei whole cell extract with HA-tagged Adriase, LC-MS/MS (Experiment 2.3)
[6] = biological target: T2, MtrB of M. mazei (subunit of the …); experiment: as above
[7] = biological target: T3, MtrH of M. mazei (subunit of the …); experiment: as above
[8] = biological target: T4, MtrG of M. mazei (subunit of the …); experiment: as above
[9] = biological target: T5, MtrF of M. mazei (subunit of the MtrA-MtrH complex), from whole cell extract (Methanosarcina mazei); experiment: as above
T5 sequence (P80654 whole entry, looked up): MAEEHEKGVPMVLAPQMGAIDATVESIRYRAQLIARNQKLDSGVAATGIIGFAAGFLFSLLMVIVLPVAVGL

- Intensity (mass spectrometry) [1]: 2.2e+06 arbitrary units
- Intensity (mass spectrometry) [2]: 3.2e+06 arbitrary units
- Intensity (mass spectrometry) [3]: 6.5e+07 arbitrary units
- Intensity (mass spectrometry) [4]: 1.2e+06 arbitrary units
B1: M. mazei Adriase with C-terminal Myc-tag (enzyme)
chain: TLVIAFIGKNGAVMAGDMREITFEGEKPDREKLEKELYSGSIVTDEEMQKKAEEFGVKITVADCKEKVSERNGVLVGEVSSAEGGVVKKRRLYASAGNFAIAELINTEMTLTSQGKGSNFIAFGNEFTKQVANKCFKDNWTKKSNLQDAVKILILCMETVARKTASVSKQFMIVQTASNADVLKVVEKDRNCGSEQKLISEEDL
notes: also called MM_2909

- Intensity (mass spectrometry) [5]: 3.8e+06 arbitrary units
- Intensity (mass spectrometry) [6]: 6.2e+06 arbitrary units
- Intensity (mass spectrometry) [7]: 2e+08 arbitrary units
- Intensity (mass spectrometry) [8]: 1.5e+07 arbitrary units
- Intensity (mass spectrometry) [9]: 430000 arbitrary units
B2: M. mazei Adriase with C-terminal HA-tag (enzyme)
chain: TLVIAFIGKNGAVMAGDMREITFEGEKPDREKLEKELYSGSIVTDEEMQKKAEEFGVKITVADCKEKVSERNGVLVGEVSSAEGGVVKKRRLYASAGNFAIAELINTEMTLTSQGKGSNFIAFGNEFTKQVANKCFKDNWTKKSNLQDAVKILILCMETVARKTASVSKQFMIVQTASNADVLKVVEKDRNCGSYPYDVPDYA
notes: also called MM_2909
